The target of assay [1] is T1, Human ADAM9 protein (ACROBiosystems, Cat. No. AD9-H52H7) (human, UniProt Q13443 29-697).
T1 construct: Bought protein; also called Human ADAM-His protein; human ADAM9 antigen; not shown: His tag
T1 sequence (looked up): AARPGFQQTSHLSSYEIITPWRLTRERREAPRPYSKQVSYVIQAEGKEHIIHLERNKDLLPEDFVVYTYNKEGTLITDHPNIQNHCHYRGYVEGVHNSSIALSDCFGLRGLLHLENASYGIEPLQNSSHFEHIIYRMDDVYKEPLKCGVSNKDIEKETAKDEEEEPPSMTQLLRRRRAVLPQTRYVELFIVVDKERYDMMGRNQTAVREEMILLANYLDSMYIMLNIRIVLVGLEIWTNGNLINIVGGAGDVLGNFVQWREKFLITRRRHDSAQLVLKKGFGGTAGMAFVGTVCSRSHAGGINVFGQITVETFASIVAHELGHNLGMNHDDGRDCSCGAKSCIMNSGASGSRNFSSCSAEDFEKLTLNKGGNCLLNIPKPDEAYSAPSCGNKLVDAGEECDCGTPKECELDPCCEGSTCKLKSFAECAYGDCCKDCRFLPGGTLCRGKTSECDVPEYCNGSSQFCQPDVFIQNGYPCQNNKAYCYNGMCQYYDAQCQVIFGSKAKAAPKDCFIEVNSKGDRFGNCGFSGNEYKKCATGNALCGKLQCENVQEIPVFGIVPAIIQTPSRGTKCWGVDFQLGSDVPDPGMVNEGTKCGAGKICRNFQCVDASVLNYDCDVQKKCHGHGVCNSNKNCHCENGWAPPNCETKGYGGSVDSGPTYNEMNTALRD
Kind of assay: SPR (Biacore 8K), antibody captured by anti-human Fc on CM5, ADAM9 as analyte. How it is done: Chip preparation: The mouse anti-human IgG (Fc) antibody (Cat. No. 29234600, Cytiva) was diluted to 25 μg/mL in immobilization buffer (10 mM sodium acetate, pH 5.0), specifically by adding 950 μL of the immobilization buffer to 50 μL of the mouse anti-human IgG (Fc) antibody. The dilution was used for immobilization in eight channels. First, the surface of the CM5 chip was activated with 400 mM EDC and 100 mM NHS at a flow rate of 10 μL/min for 420 seconds. Then, 25 μg/mL of the mouse anti-human IgG (Fc) antibody was injected into the test channels at a flow rate of 10 μL/min for approximately 360 seconds, with the level of immobilization at approximately 7000 to 14000 RU. Finally, the chip was blocked with 1 M ethanolamine at a flow rate of 10 μL/min for 420 seconds. The reference channels underwent the same procedures as the test channels.
Ligand capture: Antibodies Ab10, Ab15, Ab16, and hMAB-A (2I.2) were diluted to 4 μg/mL in running buffer (containing 10 mM N-(2-hydroxyethyl)piperazine-N-2-ethanesulfonic acid (HEPES), 150 mM sodium chloride (NaCl), 3 mM ethylenediaminetetraacetic acid (EDTA), 0.005% Tween-20, pH adjusted to 7.4) and injected into the test channels for human IgG (Fc) capture at a flow rate of 10 μL/min at approximately 200 RU. No ligand capture was performed in the reference channels.
Analyte multi-cycle analysis: Human and cynomolgus ADAM9 proteins (human ADAM9 protein purchased from ACRO, Cat. No. AD9-H52H7; monkey ADAM9 protein purchased from ACRO, Cat. No. AD9-C52H7) were diluted 2-fold in running buffer (Table 10). The diluted human or cynomolgus ADAM9 protein was sequentially injected into the test channels and the reference channels at a flow rate of 30 μL/min, with corresponding association and dissociation times. Both the association and dissociation steps were performed in the running buffer. After each concentration analysis, the chip was regenerated with 3 M magnesium chloride at a flow rate of 20 μL/min for 30 seconds to wash away the ligand and any undissociated analyte. For the next concentration analysis, the test channels required re-capture of the same amount of ligand.

For assay [2], the target named is T2, ADAM9 on human tumor cells (LS174T, HepG2, Calu-3, Colo205) (human, UniProt Q13443 29-819).
T2 sequence (looked up): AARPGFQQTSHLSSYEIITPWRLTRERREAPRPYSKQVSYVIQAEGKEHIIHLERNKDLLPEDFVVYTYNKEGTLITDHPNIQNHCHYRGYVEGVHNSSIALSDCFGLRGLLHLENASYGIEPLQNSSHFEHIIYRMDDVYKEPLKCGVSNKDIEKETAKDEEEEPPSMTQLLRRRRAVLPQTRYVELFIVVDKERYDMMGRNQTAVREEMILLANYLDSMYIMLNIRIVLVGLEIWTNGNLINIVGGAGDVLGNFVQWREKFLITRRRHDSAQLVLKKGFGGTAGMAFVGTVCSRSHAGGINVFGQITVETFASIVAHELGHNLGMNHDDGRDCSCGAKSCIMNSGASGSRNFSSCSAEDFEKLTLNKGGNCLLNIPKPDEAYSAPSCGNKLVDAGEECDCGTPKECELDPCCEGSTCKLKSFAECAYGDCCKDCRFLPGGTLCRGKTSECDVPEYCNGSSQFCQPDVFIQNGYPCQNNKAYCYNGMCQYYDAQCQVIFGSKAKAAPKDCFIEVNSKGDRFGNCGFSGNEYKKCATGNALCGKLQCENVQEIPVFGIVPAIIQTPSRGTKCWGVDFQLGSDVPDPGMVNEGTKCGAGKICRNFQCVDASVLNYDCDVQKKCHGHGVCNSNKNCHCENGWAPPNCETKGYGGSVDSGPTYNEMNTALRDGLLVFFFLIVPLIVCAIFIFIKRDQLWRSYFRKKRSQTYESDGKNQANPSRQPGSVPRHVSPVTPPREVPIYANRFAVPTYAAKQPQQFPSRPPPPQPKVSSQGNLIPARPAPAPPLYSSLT
Kind of assay: cell-based or functional assay.

Here are results for two molecules from patent US20260242515A1 (DUALITY BIOLOGICS SHANGHAI, published 2026).

Changes are numbered by the printed parent chain.

B1: Ab15 (antibody, human IgG1, kappa, V domains shown)
VH: QVQLQQPGAELKKPGASVKVSCKASGFTFPLYWMNWVRQRPGRGLEWIGRIIPIFGHTKYNEKFKDRATMTADESSSTAYMELSSLTSEDSAVYYCARGGYYYYPREGFLDYWGQGTSVTVSS
VL: DIVMTQSPDSLSVSPGERATINCRSSQSVDYSGDSYMNWYQQKPGQSPRLLIYAASDRESGVPDRFSGSGSGTDFTLKISNVEEEDAATYYCQQSREDPFTFGQGTRVEIKR
notes: Humanized anti-ADAM9 IgG1/kappa; also called Ab15-V (variable regions)
As to B1, in assay [1], the Kd turned out to be 4.03 nM, the dissociation rate constant (koff) was 0.000697 s⁻¹ and the association rate constant (kon) turned out to be 173000 M⁻¹ s⁻¹. Besides, in assay [2], the EC50 for internalization worked out at 0.17 nM and the “Maximum internalization rate (%)” value came out at 81.8%.

B2: Ab16 (antibody, human IgG1, kappa, V domains shown)
VH: B1 VH with A9T, L11V, K12V, V20L, N35H, D66N, R67K, M70L, S84R, E89D
VL: B1 VL with D9A, T20S, N22S, N81R, A88G, R107K, E109D
notes: Humanized anti-ADAM9 IgG1/kappa; also called Ab16-V (variable regions)
In assay [1], B2 had an equilibrium dissociation constant (Kd) of 5.01 nM, an off-rate (koff) of 0.000816 s⁻¹ and a kon of 163000 M⁻¹ s⁻¹. Moreover, in assay [2], the EC50 for internalization stood at 0.12 nM and the “Maximum internalization rate (%)” value was determined as 83.3%.
